These results are taken from patent US20240317847A1 (Bayer, published 2024).

For assay [1], the target named is T1, human IL-11 (Invigate, e.g., lot #C121021-19) (human, UniProt P20809 22-199).
T1 construct: Bought protein; also called hIL-11; hIL11
T1 sequence: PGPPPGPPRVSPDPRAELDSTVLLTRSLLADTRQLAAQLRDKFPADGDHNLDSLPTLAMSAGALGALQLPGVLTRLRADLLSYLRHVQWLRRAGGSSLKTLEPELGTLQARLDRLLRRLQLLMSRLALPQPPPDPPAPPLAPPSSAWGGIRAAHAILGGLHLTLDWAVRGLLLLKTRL
The assay can be described thus: ELISA, receptor-Fc titrated on biotinylated IL-11 captured on streptavidin plate; species of IL-11 not said. (In an ELISA, binding on a coated surface is turned into a signal by an enzyme label.)

Assay [2] concerns the target T2, murine IL-11 (Invigate, e.g., lot #C210819-09) (mouse, UniProt P47873 22-199).
T2 construct: Bought protein; biotinylated where captured on streptavidin plates; also called mIL-11; mIL11
T2 sequence: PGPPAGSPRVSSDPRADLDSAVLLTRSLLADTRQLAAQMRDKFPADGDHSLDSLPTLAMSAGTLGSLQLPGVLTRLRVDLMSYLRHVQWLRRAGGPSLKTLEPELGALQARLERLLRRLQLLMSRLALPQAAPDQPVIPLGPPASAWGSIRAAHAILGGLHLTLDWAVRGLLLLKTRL
The description is as above.

Assay [3] has as its target T3, human IL-11 (human, UniProt P20809 22-199).
T3 sequence: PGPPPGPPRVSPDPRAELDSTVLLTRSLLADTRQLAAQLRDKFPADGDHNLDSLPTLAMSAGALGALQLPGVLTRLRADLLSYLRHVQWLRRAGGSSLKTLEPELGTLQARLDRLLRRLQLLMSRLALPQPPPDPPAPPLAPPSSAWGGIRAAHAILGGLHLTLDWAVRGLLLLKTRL
The assay is described as follows: cell-based or functional assay.

Assay [4] concerns the target T4, murine IL-11 (mouse, UniProt P47873 22-199).
T4 sequence: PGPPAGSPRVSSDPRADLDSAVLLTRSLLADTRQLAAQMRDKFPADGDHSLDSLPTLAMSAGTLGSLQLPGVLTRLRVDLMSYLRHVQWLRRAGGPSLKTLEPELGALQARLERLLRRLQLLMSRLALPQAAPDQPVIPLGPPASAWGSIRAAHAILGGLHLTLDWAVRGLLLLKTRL
The assay can be described thus: cell-based or functional assay.

The target of assay [5] is T3, human IL-11. The assay can be described thus: SPR (Biacore), 25 C, antibody captured via anti-Fc, IL-11 as analyte. How it is done:
(§1) To assess the binding kinetics and affinity of anti-IL-11 bispecific antibodies as well as their species cross-reactivity profile, binding assays were conducted using surface plasmon resonance (SPR). […] Antibodies were captured either via anti-human Fc IgGs (“Human antibody capture kit”, Order No. BR100839, Cytiva) or via anti-mouse Fc IgGs (“Mouse antibody capture kit, Order No. BR100383, Cytiva) covalently amine coupled to a Series S CM5 sensor chip (Cytiva) depending on the isotype. The amine coupling was carried out according to the manufacturer's instructions using 1-ethyl-3-(3-dimethylaminopropyl) carbodiimide hydrochloride (EDC), N-hydroxysuccinimide (NHS) and ethanolamine HCl, pH 8.5 (“Amine Coupling Kit” BR-1000-50, Cytiva.). Human, mouse, cynomolgus or rat IL-11 was used as analyte at several dilutions within the concentration range from 0.05-200 nM. For binding assays with only one concentration 200 nM IL-11 was used. The sensor surface was regenerated with glycine pH 1.7 after each antigen injection. Obtained sensorgrams were double referenced (subtraction of reference flow cell signal and buffer injection) and were fitted to a 1:1 Langmuir binding model to derive kinetic data using the Biacore T200 Evaluation software or the Biacore Insight software.
(§2) If no value is reported, there was either no binding or very low binding and multiphasic binding behavior.

Assay [6] deals with T4, murine IL-11. Described as above. As for the experimental part:
as §1, §2

The target of the next assay is T5, cynomolgus IL-11 (cynomolgus, UniProt P20808 22-199).
T5 construct: Invigate recombinant protein; also called cIL11; Macaca IL-11
T5 sequence: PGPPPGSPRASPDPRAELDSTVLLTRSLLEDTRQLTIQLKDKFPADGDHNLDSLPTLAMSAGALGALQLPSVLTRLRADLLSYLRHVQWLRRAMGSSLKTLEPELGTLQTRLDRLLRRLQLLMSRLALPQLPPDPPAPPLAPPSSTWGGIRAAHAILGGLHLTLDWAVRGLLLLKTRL
The description is as above. How it is done: as §1, §2

The target of the next assay is T6, rat IL-11 (rat, UniProt Q99MF5 22-199).
T6 construct: Invigate recombinant protein; also called rIL11
T6 sequence: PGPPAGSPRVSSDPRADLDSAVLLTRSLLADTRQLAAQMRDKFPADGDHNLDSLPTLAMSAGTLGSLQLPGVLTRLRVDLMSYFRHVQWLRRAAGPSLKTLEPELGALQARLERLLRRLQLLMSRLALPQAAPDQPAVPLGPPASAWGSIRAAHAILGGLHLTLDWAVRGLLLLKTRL
The assay is described as above. As for the experimental part:
as §1, §2

The target of the next assay is T7, human IL2Ra (human, UniProt P01589 22-240, limits assumed).
T7 construct: coated on the ELISA plate; also called IL-2 receptor alpha
T7 sequence (looked up): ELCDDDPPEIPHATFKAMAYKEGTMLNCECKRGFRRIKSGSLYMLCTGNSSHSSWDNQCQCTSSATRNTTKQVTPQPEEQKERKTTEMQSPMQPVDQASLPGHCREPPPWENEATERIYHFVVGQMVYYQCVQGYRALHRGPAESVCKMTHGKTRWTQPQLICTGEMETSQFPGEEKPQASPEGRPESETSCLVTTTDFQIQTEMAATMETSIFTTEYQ
The assay is described as follows: ELISA on coated IL2Ra, signal ratio to isotype control at 1E-07 M antibody. As for the experimental part:
IL2RA (Peprotech, Germany, #200-02RC) was coated at 1 or 0 μg/ml (buffer only control) in 30 μl coating buffer (Candor, #113500) per well on a 384 well microtiter plate (Maxisorb, Nunc, #460518) over night at 4-8° C. After two washes with 50 μl/well washing buffer (PBS+0.05% Tween, pH 7.4), the plates were incubated for two hours at room temperature with 50 μl/well SmartBlock (Candor, #113500). After blocking, the plates were washed three times with washing buffer. Then, a dilution series of the respective antibody (1E-7 [M] down to 2E-13 [M]) in PBS+0.05% Tween, 10% SmartBlock were added in 30 μl to the microtiter plate and incubated for 90 min at room temperature. After three additional washes, 30 μl anti mouse IgG HRP-conjugated antibody (Biotechne, HAF007), diluted 1:1000 in PBS+0.05% Tween (pH 7.4), were added per well and incubated for one hour. After three additional washes, a mixture of Amplex red (Invitrogen, #12222, 10 mM stock solution in DMSO) 1:1000 diluted in PBS and H2O2 (30%, Merck, #107209)) diluted 1:10000 in PBS were added as substrate with 30 μl per well and incubated for 20 min in the dark. Relative fluorescence was measured with a microtiter plate reader at 535/590 nm.
Bispecific antibodies were subjected to the experimental assay procedure described in Example 20. Ratios of the signals generated at an antibody concentration of 1E-07 [M] by the respective bispecific antibody versus those of an isotype control antibody were calculated and are shown in Table E29. The bispecific antibodies show no binding to IL-2 Ra.

Assay [7] concerns the target T3, human IL-11. The assay can be described thus: Di-complex ELISA, canine IL11RA-hFc binding to immobilized hIL-11, competition. As for the experimental part: (§3) In the Di-complex ELISA format anti IL-11 antibodies are tested for the ability to interfere with the formation of complexes consisting of immobilized murine IL-11 (Invigate, e.g., lot #C210819-09) or human IL-11 (Invigate, e.g., lot #C121021-19), and murine IL11RA-Fc fusion proteins or canine IL11RA-human-Fc fusion protein (FIG. 17a, b).
(§4) Bispecific antibodies were subjected to the experimental assay procedure described in Example 18 and IC50 [M], respectively efficacy (%) were calculated accordingly.

The target of assay [8] is T4, murine IL-11. The assay can be described thus: Di-complex ELISA, canine IL11RA-hFc binding to immobilized mIL-11, competition. How it is done:
as §3, §4

The target in assay [9] is T3, human IL-11. The assay is described as follows: Tri-complex ELISA, hIL-11 + mIL-11Ra-Fc + hgp130-Fc, inhibition of complex formation. As for the experimental part:
(§5) In the Tri-complex ELISA format IL-11 antibodies are tested for their ability to inhibit the formation of a complex consisting of murine or human gp130-Fc fusion protein, with murine or human IL-11, and a murine IL11RA-Fc fusion protein. The assay format was adapted according to FIG. 18 (a, b), depending on whether murine or human IL-11 IgG antibodies were tested.
(§6) Bispecific antibodies were subjected to the experimental assay procedure described in Example 19 and IC50 [M], respectively efficacy (%) were calculated accordingly.

Assay [10] addresses T4, murine IL-11. The assay can be described thus: Tri-complex ELISA, mIL-11 + mIL-11Ra-Fc + mgp130-Fc, inhibition of complex formation. How it is done:
as §5, §6

B1: canine IL11RA-human-Fc fusion protein (Sino Biological, #70078-D02H) (Fc fusion)
chain: SPCPQAWGPPGVQYGQPGRSMTLCCPGVTAGAPVSWFRDGETRLLQGPDSGLGHELVLAQADSTDEGTYICRTLDGALGGIVTLQLGYPPARPVVSCQAADYENFSCTWSPSQVSGLPTRYLTSYRKKTVPGADGQRMSPSTGPWPCPQDPPGAARCVVHGAEFWSQYRINVTEVNPLGTSTRLLDVSLQSILRPDPPQGLRVESVPGYPRRLRASWTYPASWPRQPHFLLRFRLQYRPAQHPAWSTVEPAGLEEVITDAVAGLPHAVRVSARDFLDAGTWSAWSPEAWGTPSTGSLPKEIPAGGQPRKQLEEEPQADSPTPPRPSLLPDPRPLDQRDPLEQIAVLA
notes: Used in the Di-complex ELISA when murine IgGs were tested; also called canine IL11RA-Fc; Canine IL-11Ra fused to human Fc; not shown: human Fc (and any linker) of the bought fusion protein, Sino Biological #70078-D02H
On to B1, for which the EC50 in assay [1] and in assay [2] was roughly 2 nM throughout.

B2: TPP-26195 (bispecific antibody, IgG1)
chain 1: EVQLLESGGGLVQPGGSLRLSCAASGFTFSSYGMHWVRQAPGKGLEWVSVISYDGSYKYYADSVKGRFTISRDNSKNTLYLQMNSLRAEDTAVYYCAAGVPDYWGQGTLVTVSSGGGGSGGGGSGGGGSQSVLTQPPSASGTPGQRVTISCTGSSSNIGAGYDVHWYQQLPGTAPKLLIYSNNERPSGVPDRFSGSKSGTSASLAISGLRSEDEADYYCAAWDDSLNGPVFGGGTKLTVLGGGGSGGGGSGGGGSGVECPPCPAPPVAGPSVFIFPPKPKDVLTITLTPKVTCVVVDISKDDPEVQFSWFVDDVEVHTAQTQPREEQFNSTFRSVSELPIMHQDWLNGKEFKCRVNSAAFPAPIEKTISKTKGRPKAPQVYTIPPPKEQMAKDKVSLWCMITDFFPEDITVEWQWNGQPAENYKNTQPIMDTDGSYFVYSKLNVQKSNWEAGNTFTCSVLHEGLHNHHTEKSLSHSPGK
chain 2: EVQLLESGGGLVQPGGSLRLSCAASGFTFSHYDMNWLRQAPGKGLEWVGVISYDGSNKFYADFVKGRFTISRDNSKNTLYLQMNSLRAEDTAVYYCARTPGSHFDYWGQGTLVTVSSGGGGSGGGGSGGGGSQSVLTQPPSASGTPGQRVTISCSGSSSNIGNNAVNWYQQLPGTAPKLLIYYDDLLPSGVPDRFSGSKSGTSASLAISGLRSEDEADYYCSAWDDSLNGVVFGGGTKLTVLGGGGSGGGGSGGGGSGVECPPCPAPPVAGPSVFIFPPKPKDVLTITLTPKVTCVVVDISKDDPEVQFSWFVDDVEVHTAQTQPREEQFNSTFRSVSELPIMHQDWLNGKEFKCRVNSAAFPAPIEKTISKTKGRPKAPQVYTIPPPKEQMAKDKVSLSCAITDFFPEDITVEWQWNGQPAENYKNTQPIMDTDGSYFVVSKLNVQKSNWEAGNTFTCSVLHEGLHNHHTEKSLSHSPGK
notes: scFv-kih-mIgG1
Regarding B2, the “Efficacy (%), Stat3 reporter gene assay” value in the assay with human IL-11 [3] amounted to 88.5%; with murine IL-11 [4], 96.9%. In addition, the “IC50, Stat3 reporter gene assay” value is 0.65 nM with human IL-11 [3] and 1.8 nM with murine IL-11 [4]. Besides, the Kd is 0.083 nM with human IL-11 [5], 0.046 nM with murine IL-11 [6], 0.074 nM with cynomolgus IL-11 and 0.045 nM with rat IL-11. Besides, the “Ratio IL-2Ra Binding Signal Antibody/Isotype Control” value with human IL2Ra amounted to 146 ratio. In addition, the IC50 in the assay with human IL-11 [7] is 6.3 nM; with murine IL-11 [8], 4.1 nM; with human IL-11 [9], 1.28 nM; with murine IL-11 [10], 0.258 nM. The “Efficacy (%)” value with human IL-11 [9] and with murine IL-11 [10] was 98% in each case.

One may read the EC50 as the concentration giving half of the maximal effect. Low values mean higher potency in that assay, high ones lower potency in that assay. A word on the Kd: it is a measure of binding affinity in units of concentration. The IC50 is the concentration at which inhibition is half-maximal.
